These results are taken from article PMC2706296 (Nature structural & molecular biology, 2009).

For experiment [1], the target named is T1, Nup85 C-terminally tagged with a tandem affinity purification (TAP) tag (budding yeast (endogenous), UniProt P46673 1-744).
T1 sequence (looked up): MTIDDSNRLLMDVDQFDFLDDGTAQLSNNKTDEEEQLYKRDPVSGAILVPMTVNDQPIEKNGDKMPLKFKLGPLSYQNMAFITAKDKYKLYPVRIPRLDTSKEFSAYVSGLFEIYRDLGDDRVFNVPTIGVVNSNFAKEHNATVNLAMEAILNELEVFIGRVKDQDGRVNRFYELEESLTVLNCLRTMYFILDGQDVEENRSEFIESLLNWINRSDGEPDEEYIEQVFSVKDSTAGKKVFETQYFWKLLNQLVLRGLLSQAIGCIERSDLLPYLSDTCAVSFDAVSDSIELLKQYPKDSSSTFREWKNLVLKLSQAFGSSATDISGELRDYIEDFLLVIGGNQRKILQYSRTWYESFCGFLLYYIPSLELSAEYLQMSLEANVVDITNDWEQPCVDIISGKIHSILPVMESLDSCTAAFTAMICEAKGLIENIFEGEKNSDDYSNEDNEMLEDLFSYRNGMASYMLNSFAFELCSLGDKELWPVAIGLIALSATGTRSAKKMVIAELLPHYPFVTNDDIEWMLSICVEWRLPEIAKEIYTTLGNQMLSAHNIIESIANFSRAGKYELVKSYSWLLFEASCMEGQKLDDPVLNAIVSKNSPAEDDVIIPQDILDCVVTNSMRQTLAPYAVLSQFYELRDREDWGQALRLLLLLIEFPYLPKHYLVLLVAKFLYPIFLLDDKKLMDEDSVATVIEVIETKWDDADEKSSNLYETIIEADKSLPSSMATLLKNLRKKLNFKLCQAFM
Put plainly: affinity purification with mass spectrometry.

Another experiment addresses Nup84 (budding yeast (endogenous), UniProt P52891 1-726). Kind of experiment: negative-stain EM, random conical tilt 3D reconstruction.

Sequence of Nup84 (P52891 whole entry): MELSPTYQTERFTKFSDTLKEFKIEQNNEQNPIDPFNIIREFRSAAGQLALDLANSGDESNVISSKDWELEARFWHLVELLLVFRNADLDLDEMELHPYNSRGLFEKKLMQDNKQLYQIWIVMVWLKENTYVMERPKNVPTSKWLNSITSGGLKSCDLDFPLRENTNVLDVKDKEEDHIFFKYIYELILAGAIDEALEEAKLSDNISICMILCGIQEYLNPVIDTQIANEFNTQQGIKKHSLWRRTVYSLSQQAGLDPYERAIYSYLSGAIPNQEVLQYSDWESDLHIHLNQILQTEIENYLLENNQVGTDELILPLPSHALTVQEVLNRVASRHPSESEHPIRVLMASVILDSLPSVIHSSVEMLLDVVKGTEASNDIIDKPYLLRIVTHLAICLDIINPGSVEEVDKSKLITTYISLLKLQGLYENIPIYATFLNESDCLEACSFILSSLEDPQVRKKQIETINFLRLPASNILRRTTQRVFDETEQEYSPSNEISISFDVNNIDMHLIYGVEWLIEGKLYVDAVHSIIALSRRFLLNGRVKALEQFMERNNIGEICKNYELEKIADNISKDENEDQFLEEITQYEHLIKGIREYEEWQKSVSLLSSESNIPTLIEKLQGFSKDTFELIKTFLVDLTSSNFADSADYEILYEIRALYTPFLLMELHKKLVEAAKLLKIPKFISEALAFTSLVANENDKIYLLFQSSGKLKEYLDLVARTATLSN

B1: Seh1 (natural protein, budding yeast (endogenous), UniProt P53011 1-349, looked up)
chain: MQPFDSGHDDLVHDVVYDFYGRHVATCSSDQHIKVFKLDKDTSNWELSDSWRAHDSSIVAIDWASPEYGRIIASASYDKTVKLWEEDPDQEECSGRRWNKLCTLNDSKGSLYSVKFAPAHLGLKLACLGNDGILRLYDALEPSDLRSWTLTSEMKVLSIPPANHLQSDFCLSWCPSRFSPEKLAVSALEQAIIYQRGKDGKLHVAAKLPGHKSLIRSISWAPSIGRWYQLIATGCKDGRIRIFKITEKLSPLASEESLTNSNMFDNSADVDMDAQGRSDSNTEEKAELQSNLQVELLSEHDDHNGEVWSVSWNLTGTILSSAGDDGKVRLWKATYSNEFKCMSVITAQQ
Take B1: in experiment [1], the binding result is “binds”.

B2: Nup145C (natural protein, budding yeast (endogenous), UniProt P49687 606-1317, looked up)
chain: SIWGLVNEEDAEIDEDDLSKQEDGGEQPLRKVRTLAQSKPSDKEVILKTDGTFGTLSGKDDSIVEEKAYEPDLSDADFEGIEASPKLDVSKDWVEQLILAGSSLRSVFATSKEFDGPCQNEIDLLFSECNDEIDNAKLIMKERRFTASYTFAKFSTGSMLLTKDIVGKSGVSIKRLPTELQRKFLFDDVYLDKEIEKVTIEARKSNPYPQISESSLLFKDALDYMEKTSSDYNLWKLSSILFDPVSYPYKTDNDQVKMALLKKERHCRLTSWIVSQIGPEIEEKIRNSSNEIEQIFLYLLLNDVVRASKLAIESKNGHLSVLISYLGSNDPRIRDLAELQLQKWSTGGCSIDKNISKIYKLLSGSPFEGLFSLKELESEFSWLCLLNLTLCYGQIDEYSLESLVQSHLDKFSLPYDDPIGVIFQLYAANENTEKLYKEVRQRTNALDVQFCWYLIQTLRFNGTRVFSKETSDEATFAFAAQLEFAQLHGHSLFVSCFLNDDKAAEDTIKRLVMREITLLRASTNDHILNRLKIPSQLIFNAQALKDRYEGNYLSEVQNLLLGSSYDLAEMAIVTSLGPRLLLSNNPVQNNELKTLREILNEFPDSERDKWSVSINVFEVYLKLVLDNVETQETIDSLISGMKIFYDQYKHCREVAACCNVMSQEIVSKILEKNNPSIGDSKAKLLELPLGQPEKAYLRGEFAQDLMKCTYKI
With B2, the binding result with Nup84 is reported as “binds”.
